Paper PMC10289200, “Detection of Arc/Arg3.1 oligomers in rat brain: constitutive and synaptic activity-evoked dimer expression in vivo” (Frontiers in Molecular Neuroscience, 2023)

What was measured:
[1] = target: T1, DJ-1, endogenous in SH-SY5Y cells (human (endogenous in SH-SY5Y)), Q99497; assay: cross-linking; in situ, 0.2 mM DSG, 10 min, 4 °C, in PBS pH 7.4, harvested SH-SY5Y cells (untreated or carbachol) or cortical neuronal cultures (untreated or BDNF); quenched with 50 mM Tris-HCl; SDS-PAGE with DTT and immunoblot; details: remark: other sources report otherwise
T1 chain: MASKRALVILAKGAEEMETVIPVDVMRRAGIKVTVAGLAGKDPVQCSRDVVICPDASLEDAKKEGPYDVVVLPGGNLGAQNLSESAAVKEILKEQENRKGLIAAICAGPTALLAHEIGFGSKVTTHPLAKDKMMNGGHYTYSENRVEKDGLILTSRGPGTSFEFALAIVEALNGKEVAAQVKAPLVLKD

[2] = target: the molecule itself; assay: as above
[3] = target: the molecule itself; assay: cross-linking; thiol-cleavable DSP on rat CA tissue; non-reducing SDS-PAGE and immunoblot; crosslinks reversed by DTT
[4] = target: the molecule itself; assay: cross-linking; DSG-crosslinked pooled rat DG (1, 2, 4 h post-HFS), then Arc immunoprecipitation (rabbit anti-Arc antibody or ALFA-H11 nanobody) and Arc immunoblot
[5] = target: the molecule itself; assay: cross-linking; in situ/ex vivo, 0.5 mM DSG, 30 min, 37 °C, PBS pH 7.4, ~0.5 mm slices of rat DG, CA or cortex (naive, HFS-LTP or BDNF-LTP); lysis in 1% Triton X-100; SDS-PAGE with DTT and immunoblot
[6] = target: the molecule itself; assay: SDS-PAGE and immunoblot without cross-linker; non-crosslinked (DMSO only) cells or tissue, boiled in Laemmli buffer with DTT; species that resist SDS
[7] = target: the molecule itself; assay: cross-linking + affinity purification with mass spectrometry; in situ, 0.1 mM DSG, 10 min, 4 °C, mTq2-Arc transfected HEK293FT cells; immunoblot, Arc immunoprecipitation and LC-MS/MS of gel-excised bands (~75, 150, 250, >250 kDa)

B1: DJ-1, endogenous in SH-SY5Y cells, Q99497 1-189 (natural protein)
chain: T1 chain
- stoichiometry N [1]: 2

B2: Activity-regulated cytoskeleton-associated protein (Arc), endogenous in human SH-SY5Y neuroblastoma cells (natural protein, human (endogenous in SH-SY5Y), UniProt Q7LC44 1-396, looked up)
chain: MELDHRTSGGLHAYPGPRGGQVAKPNVILQIGKCRAEMLEHVRRTHRHLLAEVSKQVERELKGLHRSVGKLESNLDGYVPTSDSQRWKKSIKACLCRCQETIANLERWVKREMHVWREVFYRLERWADRLESTGGKYPVGSESARHTVSVGVGGPESYCHEADGYDYTVSPYAITPPPAAGELPGQEPAEAQQYQPWVPGEDGQPSPGVDTQIFEDPREFLSHLEEYLRQVGGSEEYWLSQIQNHMNGPAKKWWEFKQGSVKNWVEFKKEFLQYSEGTLSREAIQRELDLPQKQGEPLDQFLWRKRDLYQTLYVDADEEEIIQYVVGTLQPKLKRFLRHPLPKTLEQLIQRGMEVQDDLEQAAEPAGPHLPVEDEAETLTPAPNSESVASDRTQPE
notes: Arc (Arg3.1), endogenous in human SH-SY5Y neuroblastoma cells; monomer at ~50 kDa on SDS-PAGE; also called Arg3.1; endogenous Arc; source: endogenous, SH-SY5Y cells (induced with 100 uM carbachol), in cells / lysate
- stoichiometry N [2]: 2

B3: DJ-1, endogenous in rat brain tissue (natural protein, rat (endogenous in rat brain tissue), UniProt O88767 1-189, looked up)
chain: MASKRALVILAKGAEEMETVIPVDIMRRAGIKVTVAGLAGKDPVQCSRDVVICPDTSLEEAKTQGPYDVVVLPGGNLGAQNLSESALVKEILKEQENRKGLIAAICAGPTALLAHEVGFGCKVTSHPLAKDKMMNGSHYSYSESRVEKDGLILTSRGPGTSFEFALAIVEALSGKDMANQVKAPLVLKD
notes: DJ-1, endogenous in rat DG, CA and cortical tissue; also called DJ-I; source: endogenous, rat brain tissue (DG, CA, cortex), in tissue / lysate
- stoichiometry N [3]: 2

B4: Arc, endogenous in rat brain tissue (dentate gyrus, hippocampal CA, cortex) (natural protein, rat (endogenous in rat brain tissue), UniProt Q63053 1-396, looked up)
chain: MELDHMTTGGLHAYPAPRGGPAAKPNVILQIGKCRAEMLEHVRRTHRHLLTEVSKQVERELKGLHRSVGKLENNLDGYVPTGDSQRWKKSIKACLCRCQETIANLERWVKREMHVWREVFYRLERWADRLESMGGKYPVGSEPARHTVSVGVGGPEPYCQEADGYDYTVSPYAITPPPAAGELPEQESVGAQQYQSWVPGEDGQPSPGVDTQIFEDPREFLSHLEEYLRQVGGSEEYWLSQIQNHMNGPAKKWWEFKQGSVKNWVEFKKEFLQYSEGTLSREAIQRELDLPQKQGEPLDQFLWRKRDLYQTLYVDAEEEEIIQYVVGTLQPKFKRFLRHPLPKTLEQLIQRGMEVQDGLEQAAEPSVTPLPTEDETEALTPALTSESVASDRTQPE
notes: Arc (Arg3.1), endogenous in adult Sprague-Dawley rat brain tissue; monomer at ~55 kDa on SDS-PAGE; also called Arg3.1; endogenous Arc; source: endogenous, rat brain tissue (DG, CA, cortex), in tissue / lysate
- stoichiometry N [4]: 2
- ratio of dimer:monomer in the DSG lane (BDNF-LTP, 2 h) [5]: 0.56
- ratio of dimer:monomer in the DSG lane (HFS-LTP, 2 h) [5]: 0.4

B5: Arc, endogenous in primary cortical neuronal cultures (natural protein, UniProt Q63053 1-396, looked up)
chain: B4 chain
notes: Arc (Arg3.1), endogenous in primary cortical neurons; also called Arg3.1; source: endogenous, primary cortical neuronal cultures (BDNF 50 ng/mL, 2 h), in cells / lysate
- stoichiometry N [2]: 2

B6: rArc-StrepII-HA, stably expressed in SH-SY5Y cells (natural protein, UniProt Q63053 1-396, looked up)
chain: B4 chain
notes: Arc printed as rArc in the cassette CMV::rArc-StrepII-HA; the species is not spelt out; monomer at ~60 kDa on SDS-PAGE; also called tagged-Arc; exogenous Arc
- stoichiometry N [6]: 2

B7: Arc N-terminally fused to monomeric Turquoise 2 (mTq2-Arc) (natural protein, UniProt Q63053 1-396, looked up)
chain: B4 chain
notes: Arc; fusion monomer at ~75 kDa on SDS-PAGE; The crosslinking in HEK293FT cells follows Eriksen et al. (2021); the construct may be described there; also called ectopic Arc; source: HEK293FT, transfected (CMV promoter), in cells / lysate; not shown: monomeric Turquoise 2 (mTq2), N-terminal, kept
- stoichiometry N [7]: 2
